US20250282820A1, “PEPTIDE COMPLEX HAVING TRKB BINDING ACTIVITY” (PEPTIDREAM INC, priority 2022, published 2025)
*1 amine or outer side, *2 acyl side, *3 side chain or, on linkers, in order; H or OH if unused. Where a SMILES comes first, the peptide text is derived from it. Bridges are numbered along the chain shown (N, C = ends). Roman numbers before positions name the chains, in order. Where no end group is shown, it is not given here. [ ]: non-standard residue; d: D form. CO(CH2CH2O)9CH2CH2CO = O=C(CCOCCOCCOCCOCCOCCOCCOCCOCCOCCC(=O)[*:2])[*:1]; 3Pal = N[C@@H](Cc1cccnc1)C(=O)O

B1: peptide complex, dimer structure No. 51 (peptide sequence No. 15 + linker structure No. 10) (peptide)
peptide: {CH2CO}-FSPY[3Pal]WPTYSE[3Pal]VECG
modifications: thioether N-15; also: homodimer via linker No. 10 (PEG2c-K-cPEG1c-K-PEG2c) at Gly16
B2: peptide complex, dimer structure No. 18 (peptide sequence No. 18 + linker structure No. 2) (peptide)
peptide: {CH2CO}-FEPY[3Pal]WPTYSE[3Pal]VSCG
modifications: thioether N-15; also: homodimer via linker No. 2 (PEG8c-K-PEG8c) at Gly16
B3: peptide complex, dimer structure No. 55 (peptide sequence No. 15 + linker structure No. 14) (peptide)
peptide: {CH2CO}-FSPY[3Pal]WPTYSE[3Pal]VECG
modifications: thioether N-15; also: homodimer via linker No. 14 (K-OCOPEG13OCO-K) at Gly16
B4: peptide complex, dimer structure No. 49 (peptide sequence No. 15 + linker structure No. 8) (peptide)
peptide: {CH2CO}-FSPY[3Pal]WPTYSE[3Pal]VECG
modifications: thioether N-15; also: homodimer via linker No. 8 (K-cPEG17c-K) at Gly16
B5: peptide complex, dimer structure No. 57 (peptide sequence No. 17 + linker structure No. 14) (peptide)
peptide: {CH2CO}-FEPY[3Pal]WPTYSE[3Pal]VECG
modifications: thioether N-15; also: homodimer via linker No. 14 (K-OCOPEG13OCO-K) at Gly16
B6: peptide complex, dimer structure No. 47 (peptide sequence No. 15 + linker structure No. 6) (peptide)
peptide: {CH2CO}-FSPY[3Pal]WPTYSE[3Pal]VECG
modifications: thioether N-15; also: homodimer via linker No. 6 (K-cPEG9c-K) at Gly16
B7: peptide complex, dimer structure No. 33 (peptide sequence No. 15 + linker structure No. 4) (peptide)
peptide: {CH2CO}-FSPY[3Pal]WPTYSE[3Pal]VECG
modifications: thioether N-15; also: homodimer via linker No. 4 (PEG8c-K-cPEG1c-K-PEG8c) at Gly16
B8: peptide complex, dimer structure No. 15 (peptide sequence No. 15 + linker structure No. 2) (peptide)
peptide: {CH2CO}-FSPY[3Pal]WPTYSE[3Pal]VECG
modifications: thioether N-15; also: homodimer via linker No. 2 (PEG8c-K-PEG8c) at Gly16
B9: peptide complex, dimer structure No. 2 (peptide sequence No. 3 + linker structure No. 2) (peptide)
peptide: {CH2CO}-FLPY[3Pal]WPTYSL[3Pal]VWCG
modifications: thioether N-15; also: homodimer via linker No. 2 (PEG8c-K-PEG8c) at Gly16
B10: peptide complex, dimer structure No. 14 (peptide sequence No. 14 + linker structure No. 2) (peptide)
peptide: {CH2CO}-FLPY[3Pal]WPTYSE[3Pal]VECG
modifications: thioether N-15; also: homodimer via linker No. 2 (PEG8c-K-PEG8c) at Gly16
B11: peptide complex, dimer structure No. 3 (peptide sequence No. 3 + linker structure No. 3) (peptide)
peptide: {CH2CO}-FLPY[3Pal]WPTYSL[3Pal]VWCG
modifications: thioether N-15; also: homodimer via linker No. 3 (PEG12c-K-PEG12c) at Gly16

Target: TrkB of the cells of the PathHunter eXpress TrkB Functional Assay kit (DiscoverX) (UniProt Q16620 32-822, limits assumed)
Test: cell-based or functional assay
Settings: not given

Chain of TrkB of the cells of the PathHunter eXpress TrkB Functional Assay kit (DiscoverX) (Q16620 32-822 limits assumed): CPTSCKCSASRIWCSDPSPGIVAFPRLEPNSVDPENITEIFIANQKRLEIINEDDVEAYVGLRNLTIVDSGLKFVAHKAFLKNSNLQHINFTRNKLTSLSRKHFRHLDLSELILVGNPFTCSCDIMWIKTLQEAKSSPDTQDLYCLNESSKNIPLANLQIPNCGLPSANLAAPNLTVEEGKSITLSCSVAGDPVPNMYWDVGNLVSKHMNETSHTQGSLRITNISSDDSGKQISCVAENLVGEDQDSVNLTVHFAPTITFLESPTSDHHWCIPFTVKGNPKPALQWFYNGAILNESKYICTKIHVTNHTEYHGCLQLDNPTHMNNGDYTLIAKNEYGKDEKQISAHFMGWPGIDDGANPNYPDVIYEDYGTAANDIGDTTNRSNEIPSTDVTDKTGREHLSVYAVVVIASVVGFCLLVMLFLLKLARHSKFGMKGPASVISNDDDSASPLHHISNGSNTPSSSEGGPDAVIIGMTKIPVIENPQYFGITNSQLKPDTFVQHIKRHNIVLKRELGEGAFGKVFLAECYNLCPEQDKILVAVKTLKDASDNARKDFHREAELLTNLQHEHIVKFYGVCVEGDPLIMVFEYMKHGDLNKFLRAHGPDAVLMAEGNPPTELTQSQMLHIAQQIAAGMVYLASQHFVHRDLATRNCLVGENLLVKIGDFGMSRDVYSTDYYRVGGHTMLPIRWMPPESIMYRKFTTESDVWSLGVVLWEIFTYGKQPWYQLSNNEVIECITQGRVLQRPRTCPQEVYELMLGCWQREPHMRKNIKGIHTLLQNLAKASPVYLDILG

PathHunter EC50 [nM]	PathHunter Emax (BDNF maximum = 100%) [%]	Molecule
0.599	106	B1
0.26	93	B2
0.581	104	B3
0.644	107	B4
0.669	99	B5
0.556	107	B6
0.354	96	B7
0.29	104	B8
–	89	B9
0.197	86	B10
–	89	B11

Target: TrkB (Homo sapiens, UniProt Q16620)
Test: PathHunter eXpress TrkB Functional Assay (phosphorylation of TrkB)
Format: cell-based
Settings: maximum signal induced by BDNF = 100%; stimulation for 3 hours
Description: To evaluate the TrkB activation potency of the TrkB agonist peptide of the present invention, the phosphorylation of TrkB was examined. The PathHunter (registered trademark) eXpress TrkB Functional Assay kit (DiscoverX; cells, 96-well plate, medium, and detection reagents included) was used and the evaluation was performed according to the attached protocols. The frozen cells were thawed and suspended in the medium, then seeded into a 96-well plate at 10,000 cells per well and incubated for 48 hours. Thereafter, Recombinant Human BDNF Protein (R&D Systems) or a peptide was added, and after stimulation for 3 hours, a detection reagent was added. The reaction was performed while protected from the light at room temperature for 60 minutes, and luminescent signals were measured using a SpectraMax Paradigm Multi-Mode Microplate Reader (Molecular Devices). The obtained signals were analyzed with GraphPad Prism, and the activity (%) was calculated with the maximum value of the signals induced by BDNF as 100% and a signal with no stimulation as 0%.
The BDNF was evaluated at 8 points (0.006 nM to 100 nM) from 100 nM using 4-fold dilutions. The peptide was evaluated in the measurement ranges A to C shown below. • Measurement range A=6 points from 100 nM using 5-fold dilutions (0.032 nM to 100 nM) • Measurement range B=8 points from 100 nM using 4-fold dilutions (0.006104 nM to 100 nM) • Measurement range C=4 points from 10 nM using 10-fold dilutions (0.01 nM to 10 nM)

Chain of TrkB (Q16620 32-822): as the sequence (Q16620 32-822 limits assumed) above

Molecule	Emax [%]
CC(C)[C@@H]1NC(=O)[C@H](Cc2cccnc2)NC(=O)[C@H](CCC(=O)O)NC(=O)[C@H](CO)NC(=O)[C@H](Cc2ccc(O)cc2)NC(=O)[C@H]([C@@H](C)O)NC(=O)[C@@H]2CCCN2C(=O)[C@H](Cc2c[nH]c3ccccc23)NC(=O)[C@H](Cc2cccnc2)NC(=O)[C@H](Cc2ccc(O)cc2)NC(=O)[C@@H]2CCCN2C(=O)[C@H](CO)NC(=O)[C@H](Cc2ccccc2)NC(=O)CSC[C@@H](C(=O)NCC(=O)N[C@@H](CCCCNC(=O)CCOCCOCCOCCOCCOCCOCCOCCOCCOCCC(=O)NCCCC[C@H](NC(=O)CNC(=O)[C@@H]2CSCC(=O)N[C@@H](Cc3ccccc3)C(=O)N[C@@H](CO)C(=O)N3CCC[C@H]3C(=O)N[C@@H](Cc3ccc(O)cc3)C(=O)N[C@@H](Cc3cccnc3)C(=O)N[C@@H](Cc3c[nH]c4ccccc34)C(=O)N3CCC[C@H]3C(=O)N[C@@H]([C@@H](C)O)C(=O)N[C@@H](Cc3ccc(O)cc3)C(=O)N[C@@H](CO)C(=O)N[C@@H](CCC(=O)O)C(=O)N[C@@H](Cc3cccnc3)C(=O)N[C@@H](C(C)C)C(=O)N[C@@H](CCC(=O)O)C(=O)N2)C(N)=O)C(N)=O)NC(=O)[C@H](CCC(=O)O)NC1=O [compound 47] (I: {CH2CO}-FSPY[3Pal]WPTYSE[3Pal]VECGK-NH2 / II: {CH2CO}-FSPY[3Pal]WPTYSE[3Pal]VECGK-NH2; linker I:17-II:17 via CO(CH2CH2O)9CH2CH2CO; thioether I:N-I:15, II:N-II:15)	107
